Laboratory results as given in PMC4258470 (Journal of molecular biology, 2014).
Like-named read-outs stand apart in the source and are kept apart here. Where no end group is shown, it is not given here. [ ]: non-standard residue; d: D form. pS = N[C@@H](COP(=O)(O)O)C(=O)O

B6: TAZ2 domain of mouse CBP (residues 1764-1855) (domain or fragment, UniProt P45481 1764-1855, looked up)
chain: SPQESRRLSIQRCIQSLVHACQCRNANCSLPSCQKMKRVVQHTKGCKRKTNGGCPVCKQLIALCCYHAKHCQENKCPVPFCLNIKHKLRQQQ

Legend:
[1] = biological target: B6; assay: NMR titration
[2] = biological target: TAZ1 domain of mouse CBP (residues 345-439) (mouse, UniProt P45481 345-439); assay: NMR titration
[3] = biological target: B6; assay: fluorescence polarisation
[4] = biological target: B6; assay: fluorescence polarisation; remark: listed apart in the source
[5] = biological target: T1, E7(1-98), full length HPV16 E7, unphosphorylated, MBP removed (HPV16, UniProt P03129 1-98); assay: NMR titration
T1 sequence: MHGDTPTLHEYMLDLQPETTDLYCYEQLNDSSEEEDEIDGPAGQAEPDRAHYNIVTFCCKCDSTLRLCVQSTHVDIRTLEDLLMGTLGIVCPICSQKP

[6] = biological target: T2, H6GB1-E7(1-98), full length HPV16 E7 fused to His6-GB1, unphosphorylated (HPV16, UniProt P03129 1-98); assay: pull-down
T2 sequence: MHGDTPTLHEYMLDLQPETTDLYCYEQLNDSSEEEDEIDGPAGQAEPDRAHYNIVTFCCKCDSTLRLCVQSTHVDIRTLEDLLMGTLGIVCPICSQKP

[7] = biological target: T3, H6GB1-E7(1-98), full length HPV16 E7 fused to His6-GB1, phosphorylated by CKII (HPV16, UniProt P03129 1-98); assay: pull-down
T3 sequence: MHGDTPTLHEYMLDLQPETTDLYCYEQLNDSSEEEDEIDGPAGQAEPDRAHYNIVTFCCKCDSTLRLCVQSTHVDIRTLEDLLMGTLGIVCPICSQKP

[8] = biological target: T2, H6GB1-E7(1-98), full length HPV16 E7 …; assay: pull-down; remark: listed apart in the source

Chain of TAZ1 domain of mouse CBP (residues 345-439) (P45481 345-439): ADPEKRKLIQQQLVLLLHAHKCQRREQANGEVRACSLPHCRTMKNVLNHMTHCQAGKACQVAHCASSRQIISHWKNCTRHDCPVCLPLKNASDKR

B1: ppE7(1-51), HPV16 E7(1-51) phosphorylated by casein kinase II at serines 31 and 32 (domain or fragment)
chain: MHGDTPTLHEYMLDLQPETTDLYCYEQLND[pS][pS]EEEDEIDGPAGQAEPDRAH
[1]
  Kd of the primary binding site (Kd1, 2-site model): 4 ± 3 nM
  Kd of the secondary binding site (Kd2, 2-site model): 33000 ± 2000 nM
[2]
  Kd: 7000 ± 300 nM
[3]
  Kd: 7 ± 3 nM

B2: ppE7(1-51) C24A,A50C-594, HPV16 E7(1-51) double mutant, phosphorylated and labelled with Alexa Fluor 594 (domain or fragment)
chain: MHGDTPTLHEYMLDLQPETTDLYAYEQLND[pS][pS]EEEDEIDGPAGQAEPDRC(Alexa Fluor 594)H
[4]
  Kd: 28 ± 6 nM

B3: pp6b-E7(1-51), phosphorylated E7(1-51) from low risk HPV6b (domain or fragment)
chain: MHGRHVTLKDIVLDLQPPDPVGLHCYEQLVDSSEDEVDEVDGQDSQPLKQH
modifications: also: phosphorylated by CKII, positions not given here
[3]
  Kd: 31 ± 3 nM

B4: 6b-E7(1-51), unphosphorylated E7(1-51) from low risk HPV6b (domain or fragment)
chain: MHGRHVTLKDIVLDLQPPDPVGLHCYEQLVDSSEDEVDEVDGQDSQPLKQH
[3]
  Kd: 79 ± 10 nM

B5: E7(1-51) from HPV16, unphosphorylated, tag removed (domain or fragment)
chain: MHGDTPTLHEYMLDLQPETTDLYCYEQLNDSSEEEDEIDGPAGQAEPDRAH
[3]
  Kd: 22 ± 6 nM

## B6
[5]
  binding result: binds
[6]
  binding result: binds

B7: H6Rb-AB, His6-tagged central pocket of the retinoblastoma protein (domain or fragment)
chain: HTPVRTVMNTIQQLMMILNSASDQPSENLISYFNNCTVNPKESILKRVKDIGYIFKEKFAKAVGQGCVEIGSQRYKLGVRLYYRVMESMLKSEEERLSIQNFSKLLNDNIFHMSLLACALEVVMATYSRSTSQNLDSGTDLSFPWILNVLNLKAFDFYKVIESFIKAEGNLTREMIKHLERCEHRIMESLAWLSDSPLFDLIKQSKGSGSTSLSLFYKKVYRLAYLRLNTLCERLLSEHPELEHIIWTLFQHTLQNEYELMRDRHLDQIMMCSMYGICKVKNIDLKFKIIVTAYKDLPHAVQETFKRVLIKEEEYDSIIVFYNSVFMQRLKTNILQYAST
[7]
  binding result: binds
[8]
  binding result: binds
